The target of experiment [1] is Avidin (obtained from egg white) (UniProt P02701). The experiment in a line: SPR; MWCNT-Av deposited on a gold disk; 0.50 mg mL^-1 bLOx or LOx injected manually, batch conditions, 25 °C; amount from the change of the resonance angle after washing with phosphate buffer.
Experiment [2] shares this target. The experiment can be described thus: electrochemical impedance spectroscopy; MWCNT-Av on glassy carbon electrode, incubated with bLOx or LOx; charge transfer resistance of hydroquinone/benzoquinone at 0.050 V, 0.050 M phosphate buffer pH 7.40.

UniProt P02701, sequence (P02701 25-152): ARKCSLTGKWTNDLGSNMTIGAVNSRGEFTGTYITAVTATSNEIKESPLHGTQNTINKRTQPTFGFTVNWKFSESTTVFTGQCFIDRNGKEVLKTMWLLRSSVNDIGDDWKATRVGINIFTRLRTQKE

“recombinant biotinylated lactate oxidase (enzyme)” had an amount immobilised (from the SPR angle change) in experiment [1] of 2600 pg mm^−2. The RCT (charge transfer resistance) after interaction in experiment [2] is 200 Ω.

These data come from PMC11048174.
